Measurements: PMC10536698

Test system: CcpA (Streptococcus agalactiae GD201008-001), ORF:5b4dc1e2
Experiment: EMSA
Settings: EMSA: 20 mM Tris-HCl pH 7.5, 30 mM KCl, 1 mM DTT, 1 mM EDTA, 10% glycerol, 20 uL, 30 min at 37 C; 10% PAGE in 0.5x TBE on ice

Row | Sequence | binding
1 | AAGTTTTCTCCTTTTGTATTACATTCTAGAGACTAAAGGAGATGTTGAAAATTTCTCCTAATCCCTTTAAATAACATTCTAATCATATCATAAATGTCTATAATTTTAAATTGTGAAAACGCCTTTTTTATGATAAACTTAAAAGTGGACTTTCTATATGAAATCTAGAAAAAAATTGAGGTATAAAC (double strand) [luxS promoter] | binds
2 | AGTATTTGTAAAAGCTAATCTTTAGATTAGGCTTTTTTAGTTTATTGATAGTTTTTGGAAGAAAATGCTTGACATTGAAAGAAAAAGAGATATAATTAAATTGCAAACGATTTCAATTCAAGGAGGGAC (double strand) [fruRKI promoter] | binds
